Measured values reported in publication PMC4655421.

Test system: C=C(OP(=O)(O)O)C(=O)O
Experiment: Steady-state ATP production by pyruvate kinase monitored by Rho-MatB
Format: biochemical, rabbit
Conditions: pH 7.5
[1] = other: single curve fit, Figure 6B, 250 μM ADP, 20 °C

## pyruvate kinase (Oryctolagus cuniculus)
other: n = 5, 20.0 °C
  Km: 103 µM
[1]
  Km: 75.5 ± 3.4 µM
  Vmax: 0.019 ± 0.002 μM s^–1
